# Measurements as given in the supplement of paper PMC10567573.
# ± gives the standard deviation.
# Assay: protein stability index of a GFP-peptide fusion (GPS, HEK-293T) (PSI 1-6); higher = more stable
# [1] = treatment: DMSO, c terminus: a fixed tail appended
# [2] = treatment: MLN4924 1 uM, 8 h, c terminus: a fixed tail appended
# [3] = treatment: DMSO, c terminus: native
# [4] = treatment: MLN4924 1 uM, 8 h, c terminus: native
# 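Note: 24-mer peptide tiles fused after GFP, lentivirally expressed, FACS-sorted into six equal bins by GFP/DsRed ratio, decoded by Illumina sequencing, PSI is the read-weighted mean bin number.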
Sequence,protein stability index [1],protein stability index [2],protein stability index [3],protein stability index [4]
NFYYFSLIPKTWYSAEQFCVSRNS [CD207],2.6 ± 0.53,2.3 ± 0.45,–,–
QDFAKDLLKTLYNSIKNEKLEWAI [PSD2],2.32 ± 0.47,2.23 ± 0.25,–,–
KLQQLPADFGRLVNLQHLDLLNNK [LRRC59],2.97 ± 0.27,3.01 ± 0.33,–,–
LMELCRLYHRADVEKVLRRWVDEE [EDARADD],2.5 ± 0.58,2.4 ± 0.33,–,–
KAQLLEQAQGQLRELLDRAMREAI [SOAT2],2.29 ± 0.33,2.37 ± 0.42,–,–
ACTRSLLGDPPPLLTLPRPPLSGA [HDAC6],3.44 ± 0.37,3.58 ± 0.26,–,–
SCYKGHREIARYLLEQGAQVNRRS [FEM1A],2.93 ± 0.14,3.11 ± 0.48,–,–
VVTRVVTGVYPRCLHASQWPVCAA [BRF1],2.54 ± 0.51,2.75 ± 0.23,–,–
RRLLEGEDAHLTQYKKEPVTTRQV [KRT17],4.56 ± 0.25,4.66 ± 0.18,–,–
RPELPPVCRARPRACSHLIRLMQR [RIPK4],2.52 ± 0.26,2.49 ± 0.31,–,–
FTLNFFRSGIQFGSWGSFQLPGLL [CLCN6],2.93 ± 0.36,3.02 ± 0.97,–,–
QHHEALSLFCYEDQEAVCLICAIS [TRIM39],2.26 ± 0.23,2.35 ± 0.18,–,–
KINLQGDIVDRGSTNLGVNQAGFT [ADD1],3.74 ± 0.25,3.83 ± 0.19,–,–
FRQYCGAACTCHVRNPLSACSIM [RNF208],–,–,2.09 ± 0.19,2.18 ± 0.2
NHLLHHFVIGHLKGAPASWWNHMH [FADS1],2.36 ± 0.56,2.31 ± 0.34,–,–
TRGRGGLLRDHIPRGKEELESLGG [MOG],4.72 ± 0.081,4.95 ± 0.19,–,–
TSANKITLVSSGSGTMGAAKVTGE [FLOT1],4.63 ± 0.12,4.69 ± 0.26,–,–
ALLITLIVVATLPIPVVFVLRHFH [SLC6A17],2.73 ± 0.52,2.33 ± 0.45,–,–
SYQKPKEVVVAESELQKELKKVKT [DPCD],4.95 ± 0.36,5.25 ± 0.31,–,–
EWPEYFMAVAFLSAQRSKDPNSQV [DCTD],2.35 ± 0.26,2.06 ± 0.48,–,–
FDVAFIGSIMTVWLSTAPTEPLTH [CARM1],3.24 ± 0.64,2.88 ± 0.53,–,–
VVNSHSLSLLGKLTISAAFNIVYI [SLC22A15],3.07 ± 0.43,3.09 ± 0.64,–,–
MGGHHPGADYPVDGLPDLGHAQDL [CTNNB1],5.03 ± 0.25,5.03 ± 0.3,–,–

Sequence,protein stability index [1],protein stability index [2],protein stability index [3],protein stability index [4]
KPDGSRHQDVPSQDDSKPTQRQFT [AASDHPPT],5.44 ± 0.14,5.353 ± 0.026,–,–
EQNIIPSATNVTCYYQPAPYVSDG [TENT5C],3.43 ± 0.4,3.63 ± 0.32,–,–
VAGILSLLLGTAYSFYLFHPLAYG [POMT2],3.16 ± 0.24,2.98 ± 0.3,–,–
SLREYNDFLEEVEEIVFNLTNNVD [MNAT1],2.6 ± 0.47,3.13 ± 0.44,–,–
TSFLQHPWDESGSGCLPPEPLFEA [FOXJ1],3.56 ± 0.22,3.62 ± 0.35,–,–
PVQASQLEEEFDSDSGLSLDSSHS [NFE2L1],5.51 ± 0.11,5.46 ± 0.22,–,–
LADSDTLSSAEENEPSQAETAVEG [C18orf25],5.55 ± 0.33,5.54 ± 0.16,–,–
FRIFIIWAISSWFRRGPAPQDQAG [CLPTM1],2.23 ± 0.2,1.87 ± 0.28,–,–
SGSGKSGGYGFGRGRASGFAGSMF [KRT71],2.8 ± 0.24,2.69 ± 0.41,–,–
DEEVQRKREMILKRKEEEALKDSL [VDR],5.35 ± 0.22,5.5 ± 0.19,–,–
FLHSLVQFLFIYQLPFCGPNVIDN [OR4A15],2.89 ± 0.32,3.48 ± 0.26,–,–
APVAEAWIPQAGPPELNYGATGEC [ZNF449],4.78 ± 0.12,4.88 ± 0.33,–,–
NPFYHCLVAEILPAPGKLLGPCVV [SAT2],3.16 ± 0.97,3.07 ± 1.2,–,–
RNQGNFSVVGTVLAATQAEKAVAN [ZC2HC1C],4.28 ± 0.15,4.24 ± 0.42,–,–
CKLILSLEPDEDPLCMLLLIDHLA [TCF25],2.82 ± 0.53,2.95 ± 0.79,–,–
ERRHREEKERRKKQQWEIMHKHNE [RSPH3],4.8 ± 0.23,4.65 ± 0.28,–,–
RVAEVSRVRVELQEQNGRLQAELA [LRRC45],4.11 ± 0.3,4.19 ± 0.13,–,–
LTLKVLRSSSCGDTELLGQATLPV [C2CD2L],2.16 ± 0.73,2.33 ± 0.34,–,–
GRLAMDEIFQKPFQTLMFLVRDWS [ATL3],2.25 ± 0.55,2.09 ± 0.21,–,–
RNSGIIGGKYLGRTKVVKPYSTVD [EFHC1],2.91 ± 0.26,3.46 ± 0.17,–,–
SSNHGCQHECVNTDDSYSCHCLKG [MATN2],4.95 ± 0.08,5.1 ± 0.2,–,–
PEPVYFHCAAVTPAGCMYIHGGVV [KLHDC10],2.53 ± 0.56,2.85 ± 0.71,–,–
SSSSSSSPTSGSPRGSHSSALERL [LURAP1L],4.83 ± 0.15,4.91 ± 0.14,–,–

Sequence,protein stability index [1],protein stability index [2],protein stability index [3],protein stability index [4]
INNGDFEAYTKICDPGLTAFEPEA [CAMK2D],4.08 ± 0.41,4.36 ± 0.18,–,–
MRPWTGSWRWIMLILFAWGTLLFY [FUT8],3.24 ± 0.16,3 ± 0.092,–,–
VAVKKKLQLYFWKDREFHELQGDF [VPS39],2.12 ± 0.3,2.06 ± 0.58,–,–
EEAVPEEEGPTVVLNPHPSLGYKE [CHGA],5.33 ± 0.28,5.32 ± 0.38,–,–
WADAAGEAVPEGPDGGGPWLEDEP [ZSWIM9],5.62 ± 0.34,5.26 ± 0.47,–,–
PGAPGMPPGIPPLMPGVPPLMPGM [ZNF207],3.71 ± 0.13,3.62 ± 0.24,–,–
TSQKVARKFWWKNVKMIVLICVIV [VAMP8],2.42 ± 0.31,2.15 ± 0.29,–,–
SLNGVYPRMNEVYTRLGEMNNAVR [CEP70],2.55 ± 0.21,3.08 ± 0.31,–,–
RLRKCYEVGMVKCGSRRERCGYRL [ESR2],2.54 ± 0.4,2.43 ± 0.29,–,–
YLGLVRTHINAVVAKIQAKIPGAK [RTN1],2.35 ± 0.29,2.06 ± 0.54,–,–
LEQKTQESQKKKQQDDSDEYDDDD [ZNF207],5.62 ± 0.12,5.61 ± 0.34,–,–
SSPRSVDSYSSTQHVPEELDLSSS [ATF6],5.29 ± 0.52,5.4 ± 0.24,–,–
ILGPSSAYTQTQFHNLRNTLDGYG [NFE2L1],2.46 ± 0.17,2.33 ± 0.25,–,–
ARMLREYQELMSLKLALDMEIATY [KRT71],2.19 ± 0.62,2.44 ± 0.21,–,–
DTLADDVPGHQTPSDLDQFSDSSL [LURAP1L],5.44 ± 0.2,5.366 ± 0.053,–,–
LHNLLLHQEGAKMAVRLAGGLQKM [CTNNB1],2.02 ± 0.22,2.36 ± 0.26,–,–
FVKALDDLHKMNHVTPPNVSLGAT [JUNB],2.43 ± 0.34,2.94 ± 0.49,–,–
FSPANPESSMEDCLAHLGEKVSQE [BCL2L13],5.2 ± 0.38,5.39 ± 0.16,–,–
LHVAAHYGRDSFVRLLLEFKAEVD [ASB7],2.15 ± 0.14,2.15 ± 0.37,–,–
CCEVETIRRAYPDANLLNDRVLRA [CCND1],2.86 ± 0.42,2.95 ± 0.23,–,–
AEMLRFGDRMFYRDWWNSTSFSNY [SOAT2],2.28 ± 0.52,2.02 ± 0.041,–,–
GAGFGGGLGAGFGGGFAGGDGLLV [KRT16],2.58 ± 0.82,2.46 ± 0.92,–,–
LGVCASGLLIYRDRLRINRFAWPK [EPB41L3],2.06 ± 0.046,2.4 ± 0.26,–,–

Sequence,protein stability index [1],protein stability index [2],protein stability index [3],protein stability index [4]
EDLTPEDDMPIGRNVLELNDVRQS [PTPRD],5.13 ± 0.3,5.19 ± 0.14,–,–
LLGTSGLKRRFSRLENRYEALAKQ [DAPK3],3.04 ± 0.31,3.06 ± 0.27,–,–
QAQGQLRELLDRAMREAIQSYPSQ [SOAT2],3.01 ± 0.31,3.11 ± 0.31,–,–
GRTLIGFLRSIDQFANLVLHQTVE [LSM1],3.37 ± 0.64,2.75 ± 0.5,–,–
SFRELLTFFCTNATIHGAIRLVCS [SCNN1D],2.85 ± 0.36,2.99 ± 0.39,–,–
NFIREQDLYALKSVKIPVRNHGIL [LYSMD4],2.27 ± 0.076,2.35 ± 0.37,–,–
ELQRQKEAEKLERQLALPATEQAA [NOP53],5.14 ± 0.34,5.42 ± 0.31,–,–
GDSGERSEGEAMEICSEPVAASPA [ZNF511],5.47 ± 0.24,5.52 ± 0.26,–,–
TDSEHSDAEVSCTDNGTFNLSRGQ [RETREG3],5.24 ± 0.22,5.28 ± 0.22,–,–
QKEDVKPYQVNGVNPAYPESRYTS [ETS1],4.53 ± 0.18,4.48 ± 0.15,–,–
MGPAQEAPVAEAWIPQAGPPELNY [ZNF449],4.46 ± 0.27,4.51 ± 0.17,–,–
LDLLSELYQKQPKIGYHLLYYLRA [INTS3],3.21 ± 0.65,2.74 ± 0.53,–,–
DAMQLNDKWQGLCWPMMDFLRCVT [CMTM3],2.22 ± 0.38,2.26 ± 0.14,–,–
GPSRSRHRRRSRERGPYRTRKHAH [CLK3],4.92 ± 0.24,4.8 ± 0.38,–,–
AAEVGTGQYATTKGISQTNLITTV [EPB41L3],3.54 ± 0.13,3.5 ± 0.41,–,–
LTKFLEEHPGGEEVLREQAGGDAT [CYB5A],5.44 ± 0.24,5.44 ± 0.26,–,–
LFSLNVISLTCVSVAFAVAWFLPM [SLC19A2],3.12 ± 0.48,2.8 ± 0.23,–,–
HMAKERAHSTASHSSSNSEDTEM [PDZK1],–,–,5.48 ± 0.26,5.39 ± 0.27
NWWIRGILTLTMISLFFLIIYMGS [CDS1],2.54 ± 0.16,2.55 ± 0.35,–,–
LAKQPGVSVNAQTLDGRTPLHLAA [RIPK4],3.99 ± 0.76,4.02 ± 0.087,–,–
